Experiments:
[1] = biological target: rPfCSP_∆ABCD (Plasmodium falciparum) (UniProt Q7K740); test: ITC
[2] = biological target: recombinant full-length PfCSP (rPfCSP_FL) (Plasmodium falciparum) (UniProt Q7K740); test: ITC

L9 (antibody)
Kd [1]: 73 nM | stoichiometry N (antigen binding sites per rPfCSP) [1]: 12.7 | KD1 (binding event 1) [2]: 22 nM | KD2 (binding event 2) [2]: 47 nM | N of binding event 1 (binding sites) [2]: 2 | N of binding event 2 (binding sites) [2]: 9 | stoichiometry N (antigen binding sites per rPfCSP) [2]: 11.2

— publication PMC7572793
